Assay results from patent US20260102475A1.

How the values were obtained:
[1] = target: IgG in human serum (serum pool n=100; pre-dose patient serum)
[2] = target: polyclonal IgG (substrate spiked into post-dose sera)

| Protein | cleavage of IgG in serum, SDS-PAGE [1] | degradation of substrate spiked into sera collected after imlifidase dosing [2] | cleavage of IgG in pre-dose patient serum, SDS-PAGE and SAB-HLA [1] |
| --- | --- | --- | --- |
| imlifidase (IdeS, Immunoglobulin G-degrading enzyme of S. pyogenes) (protein) DSFSANQEIRYSEVTPYHVTSVWTKGVTPPANFTQGEDVFHAPYVANQGWYDITKTFNGKDDLLCGAATAGNMLHWWFDQNKDQIKRYLEEHPEKQKINFNGEQMFDVKEAIDTKNHQLDSKLFEYFKEKAFPYLSTKHLGVFPDHVIDMFINGYRLSLTNHGPTPVKEGSKDPRGGIFDAVFTRGDQSKLLTSRHDFKEKNLKEISDLIKKELTEGKALGLSHTYANVRINHVINLWGADFDSNGNLKAIYVTDSDSNASIGMKKYFVGVNSAGKVAISAKEIKEDNIGAQVLGLFTLSTGQDSWNQTN | a concentration of around 2 µg/mL imlifidase was needed to start the cleavage in serum and concentrations below this did not result in any cleavage despite prolonged incubation | When polyclonal IgG was used as substrate, no degradation was seen in samples collected from 48 hours after dosing and forward | – |
| N240 (IdeS/IdeZ hybrid IgG cysteine protease) (protein) DDYQRNATEAYAKEVPHQITSVWTKGVTPPEQFTQGEDVIHAPYLAHQGWYDITKAFNGKDDLLCGAATAGNMLHWWFDQNKTEIEAYLSKHPEKQKIIFRNQELFDLKAAIDTKDSQTNSQLFNYFRDKAFPNLSARQLGVMPDLVLDMFINGYYLNVFKTQSTDVNRPYQDKDKRGGIFDAVFTRGNQTTLLTARHDLKNKGLNDISTIIKQELTEGRALALSHTYANVSISHVINLWGADFNAEGNLEAIYVTDSDANASIGMKKYFVGINAHGHVAISAKKIEGENIGAQVLGLFTLSSGKDIWQKLS | – | – | N240 showed similar cleavage properties to imlifidase |
